Laboratory results as given in the RNAGym collection of RNA variant scans (doi:10.1021/acssynbio.7b00057).

B1: Pistol ribozyme (parent)
chain: GGGUCGUUGUUCCAUAAUCGCGUGGAUAUGGCACGCAAGUUUCUACCGGGCACCGUAAAUGUCCGACUGGAGCCGUUCGGGCGGCUAUAAACAGACCUCAGGCCCGAAGCGUGGCGGCACCUGCCGCCGGUGGUAAAAAAGAUCGGAAGAGCACACGUCU

Variants of: B1
Assay: aptazyme ON/OFF ratio, guanine; higher = stronger switching; co-transcriptional cleavage with and without guanine

Variant | aptazyme ON/OFF ratio
GGGUCGCUGUCCUAUAAUCGCGUGGAUAUGGCACGCAAGUUUCUACCGGGCACCGUAAAUGUCCGACUGGAGCCGUUCGGGCGGCUAUAAACAGACCUCAGGCCCGAAGCGUGGCGGCACCUGCCGCCGGUGGUAAAAAAGAUCGGAAGAGCACACGUCU [U7C U11C C13U] | 1.13
GGGUCGCUGUCCGAUAAUCGCGUGGAUAUGGCACGCAAGUUUCUACCGGGCACCGUAAAUGUCCGACUGGAGCCGUUCGGGCGGCUAUAAACAGACCUCAGGCCCGAAGCGUGGCGGCACCUGCCGCCGGUGGUAAAAAAGAUCGGAAGAGCACACGUCU [U7C U11C C13G] | 1.05
GGGUCGCUGUCCAAUAAUCGCGUGGAUAUGGCACGCAAGUUUCUACCGGGCACCGUAAAUGUCCGACUGGAGCCGUUCGGGCGGCUAUAAACAGACCUCAGGCCCGAAGCGUGGCGGCACCUGCCGCCGGUGGUAAAAAAGAUCGGAAGAGCACACGUCU [U7C U11C C13A] | 1.15
GGGUCGCUGUGCAAUAAUCGCGUGGAUAUGGCACGCAAGUUUCUACCGGGCACCGUAAAUGUCCGACUGGAGCCGUUCGGGCGGCUAUAAACAGACCUCAGGCCCGAAGCGUGGCGGCACCUGCCGCCGGUGGUAAAAAAGAUCGGAAGAGCACACGUCU [U7C U11G C13A] | 1.06
GGGUCGCUGUGCUAUAAUCGCGUGGAUAUGGCACGCAAGUUUCUACCGGGCACCGUAAAUGUCCGACUGGAGCCGUUCGGGCGGCUAUAAACAGACCUCAGGCCCGAAGCGUGGCGGCACCUGCCGCCGGUGGUAAAAAAGAUCGGAAGAGCACACGUCU [U7C U11G C13U] | 1.03
GGGUCGCUGUGCGAUAAUCGCGUGGAUAUGGCACGCAAGUUUCUACCGGGCACCGUAAAUGUCCGACUGGAGCCGUUCGGGCGGCUAUAAACAGACCUCAGGCCCGAAGCGUGGCGGCACCUGCCGCCGGUGGUAAAAAAGAUCGGAAGAGCACACGUCU [U7C U11G C13G] | 1.03
GGGUCGCUGUGCCAUAAUCGCGUGGAUAUGGCACGCAAGUUUCUACCGGGCACCGUAAAUGUCCGACUGGAGCCGUUCGGGCGGCUAUAAACAGACCUCAGGCCCGAAGCGUGGCGGCACCUGCCGCCGGUGGUAAAAAAGAUCGGAAGAGCACACGUCU [U7C U11G] | 1.2
GGGUCGGUGUUACAUAAUCGCGUGGAUAUGGCACGCAAGUUUCUACCGGGCACCGUAAAUGUCCGACUGGAGCCGUUCGGGCGGCUAUAAACAGACCUCAGGCCCGAAGCGUGGCGGCACCUGCCGCCGGUGGUAAAAAAGAUCGGAAGAGCACACGUCU [U7G C12A] | 1.14
GGGUCGGUGUUGCAUAAUCGCGUGGAUAUGGCACGCAAGUUUCUACCGGGCACCGUAAAUGUCCGACUGGAGCCGUUCGGGCGGCUAUAAACAGACCUCAGGCCCGAAGCGUGGCGGCACCUGCCGCCGGUGGUAAAAAAGAUCGGAAGAGCACACGUCU [U7G C12G] | 1.25
GGGUCGGUGUUUCAUAAUCGCGUGGAUAUGGCACGCAAGUUUCUACCGGGCACCGUAAAUGUCCGACUGGAGCCGUUCGGGCGGCUAUAAACAGACCUCAGGCCCGAAGCGUGGCGGCACCUGCCGCCGGUGGUAAAAAAGAUCGGAAGAGCACACGUCU [U7G C12U] | 1.39
GGGUCGGUGUUCCAUAAUCGCGUGGAUAUGGCACGCAAGUUUCUACCGGGCACCGUAAAUGUCCGACUGGAGCCGUUCGGGCGGCUAUAAACAGACCUCAGGCCCGAAGCGUGGCGGCACCUGCCGCCGGUGGUAAAAAAGAUCGGAAGAGCACACGUCU [U7G] | 1.89
GGGUCGCUGUCUAAUAAUCGCGUGGAUAUGGCACGCAAGUUUCUACCGGGCACCGUAAAUGUCCGACUGGAGCCGUUCGGGCGGCUAUAAACAGACCUCAGGCCCGAAGCGUGGCGGCACCUGCCGCCGGUGGUAAAAAAGAUCGGAAGAGCACACGUCU [U7C U11C C12U C13A] | 1.39
GGGUCGCUGUCUGAUAAUCGCGUGGAUAUGGCACGCAAGUUUCUACCGGGCACCGUAAAUGUCCGACUGGAGCCGUUCGGGCGGCUAUAAACAGACCUCAGGCCCGAAGCGUGGCGGCACCUGCCGCCGGUGGUAAAAAAGAUCGGAAGAGCACACGUCU [U7C U11C C12U C13G] | 1.22
GGGUCGCUGUCUUAUAAUCGCGUGGAUAUGGCACGCAAGUUUCUACCGGGCACCGUAAAUGUCCGACUGGAGCCGUUCGGGCGGCUAUAAACAGACCUCAGGCCCGAAGCGUGGCGGCACCUGCCGCCGGUGGUAAAAAAGAUCGGAAGAGCACACGUCU [U7C U11C C12U C13U] | 1.29
GGGUCGCUGUCUCAUAAUCGCGUGGAUAUGGCACGCAAGUUUCUACCGGGCACCGUAAAUGUCCGACUGGAGCCGUUCGGGCGGCUAUAAACAGACCUCAGGCCCGAAGCGUGGCGGCACCUGCCGCCGGUGGUAAAAAAGAUCGGAAGAGCACACGUCU [U7C U11C C12U] | 1.5
GGGUCGCUGUGGGAUAAUCGCGUGGAUAUGGCACGCAAGUUUCUACCGGGCACCGUAAAUGUCCGACUGGAGCCGUUCGGGCGGCUAUAAACAGACCUCAGGCCCGAAGCGUGGCGGCACCUGCCGCCGGUGGUAAAAAAGAUCGGAAGAGCACACGUCU [U7C U11G C12G C13G] | 1.27
GGGUCGCUGUGGUAUAAUCGCGUGGAUAUGGCACGCAAGUUUCUACCGGGCACCGUAAAUGUCCGACUGGAGCCGUUCGGGCGGCUAUAAACAGACCUCAGGCCCGAAGCGUGGCGGCACCUGCCGCCGGUGGUAAAAAAGAUCGGAAGAGCACACGUCU [U7C U11G C12G C13U] | 1.15
GGGUCGCUGUGGAAUAAUCGCGUGGAUAUGGCACGCAAGUUUCUACCGGGCACCGUAAAUGUCCGACUGGAGCCGUUCGGGCGGCUAUAAACAGACCUCAGGCCCGAAGCGUGGCGGCACCUGCCGCCGGUGGUAAAAAAGAUCGGAAGAGCACACGUCU [U7C U11G C12G C13A] | 1.14
